Patent US20030198640A1 (Human Genome Sciences, published 2003)

Tests used:
Test in all cases: flow cytometry on transiently transfected cells
[1] = target: T1, LT R (LTβR) on transiently transfected cells (UniProt P36941 31-435, limits assumed)
T1 construct: whole, on cells
Procedure: (§1) One million cells, in 0.1 ml of FACS buffer (PBS, 0.1% BSA, 0.1% NaN₃), were incubated with 0.1-1 microgram of protein or antibody at RT for 15 min. The cells were washed with 3 ml of FACS buffer, reacted with biotinylated primary antibody, and stained with PE-conjugated secondary antibody at RT for 15 min. Cells were then washed again, resuspended in 0.5 microgram/ml of propidium iodide, and live cells were gated and analyzed on a FACScan using the CellQuest software (BD Biosciences).

[2] = target: T2, DcR2 on transiently transfected cells (UniProt Q9UBN6 56-386, limits assumed)
T2 construct: whole, on cells
T2 sequence (looked up): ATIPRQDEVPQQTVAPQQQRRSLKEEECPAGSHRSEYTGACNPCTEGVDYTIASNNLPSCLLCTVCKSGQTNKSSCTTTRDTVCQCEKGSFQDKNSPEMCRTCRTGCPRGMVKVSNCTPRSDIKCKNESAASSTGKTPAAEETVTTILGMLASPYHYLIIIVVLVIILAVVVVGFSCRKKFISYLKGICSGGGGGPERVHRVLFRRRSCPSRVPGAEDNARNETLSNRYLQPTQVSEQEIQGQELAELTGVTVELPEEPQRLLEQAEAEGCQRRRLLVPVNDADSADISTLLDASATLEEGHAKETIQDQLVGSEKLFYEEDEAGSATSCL
Procedure: as §1

[3] = target: T3, DR5 on transiently transfected cells (UniProt O14763 56-440, limits assumed)
T3 construct: whole, on cells
Procedure: as §1

[4] = target: T4, CD27 on transiently transfected cells (UniProt P26842 20-260, limits assumed)
T4 construct: whole, on cells
T4 sequence (looked up): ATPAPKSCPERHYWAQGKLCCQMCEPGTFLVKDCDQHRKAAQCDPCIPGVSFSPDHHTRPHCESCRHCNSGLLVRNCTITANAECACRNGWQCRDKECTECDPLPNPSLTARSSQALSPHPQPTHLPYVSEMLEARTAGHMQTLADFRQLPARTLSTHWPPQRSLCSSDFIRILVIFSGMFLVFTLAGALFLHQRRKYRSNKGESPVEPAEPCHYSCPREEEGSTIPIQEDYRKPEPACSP
Procedure: as §1

[5] = target: T5, CD30 on transiently transfected cells (UniProt P28908 19-595, limits assumed)
T5 construct: whole, on cells
T5 sequence (looked up): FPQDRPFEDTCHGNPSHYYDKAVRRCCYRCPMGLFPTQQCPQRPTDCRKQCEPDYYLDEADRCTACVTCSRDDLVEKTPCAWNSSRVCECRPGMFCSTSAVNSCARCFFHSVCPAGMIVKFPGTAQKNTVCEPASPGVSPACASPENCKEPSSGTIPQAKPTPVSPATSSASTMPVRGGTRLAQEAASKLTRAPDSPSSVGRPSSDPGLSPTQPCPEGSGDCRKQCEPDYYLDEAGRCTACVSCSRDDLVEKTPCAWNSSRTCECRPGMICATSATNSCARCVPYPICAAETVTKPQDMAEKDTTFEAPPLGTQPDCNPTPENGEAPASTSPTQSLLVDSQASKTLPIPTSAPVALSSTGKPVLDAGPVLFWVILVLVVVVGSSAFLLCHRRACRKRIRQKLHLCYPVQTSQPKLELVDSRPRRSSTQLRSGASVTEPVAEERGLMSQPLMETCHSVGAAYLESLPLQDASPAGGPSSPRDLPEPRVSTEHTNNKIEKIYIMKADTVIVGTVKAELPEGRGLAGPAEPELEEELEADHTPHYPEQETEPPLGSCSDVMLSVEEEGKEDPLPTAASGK
Procedure: as §1

[6] = target: T6, RANK on transiently transfected cells (UniProt Q9Y6Q6 30-616, limits assumed)
T6 construct: whole, on cells
T6 sequence (looked up): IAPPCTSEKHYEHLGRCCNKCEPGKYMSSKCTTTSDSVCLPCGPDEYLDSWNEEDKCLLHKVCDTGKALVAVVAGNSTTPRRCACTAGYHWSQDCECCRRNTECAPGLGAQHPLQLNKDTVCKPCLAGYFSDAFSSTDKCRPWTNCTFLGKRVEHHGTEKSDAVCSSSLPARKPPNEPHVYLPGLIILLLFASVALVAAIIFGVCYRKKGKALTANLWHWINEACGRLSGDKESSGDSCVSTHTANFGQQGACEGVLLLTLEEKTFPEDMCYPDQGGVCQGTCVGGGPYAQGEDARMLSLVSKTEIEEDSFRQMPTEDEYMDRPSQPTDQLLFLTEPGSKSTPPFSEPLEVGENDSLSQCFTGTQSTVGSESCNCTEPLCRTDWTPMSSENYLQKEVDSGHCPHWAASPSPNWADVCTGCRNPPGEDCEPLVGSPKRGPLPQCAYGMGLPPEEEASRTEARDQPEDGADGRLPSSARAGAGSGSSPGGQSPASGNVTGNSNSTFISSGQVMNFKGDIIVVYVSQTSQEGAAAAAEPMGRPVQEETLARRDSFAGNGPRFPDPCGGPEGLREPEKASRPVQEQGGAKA
Procedure: as §1

Measured: binding result

T1 sequence (P36941 31-435 limits assumed): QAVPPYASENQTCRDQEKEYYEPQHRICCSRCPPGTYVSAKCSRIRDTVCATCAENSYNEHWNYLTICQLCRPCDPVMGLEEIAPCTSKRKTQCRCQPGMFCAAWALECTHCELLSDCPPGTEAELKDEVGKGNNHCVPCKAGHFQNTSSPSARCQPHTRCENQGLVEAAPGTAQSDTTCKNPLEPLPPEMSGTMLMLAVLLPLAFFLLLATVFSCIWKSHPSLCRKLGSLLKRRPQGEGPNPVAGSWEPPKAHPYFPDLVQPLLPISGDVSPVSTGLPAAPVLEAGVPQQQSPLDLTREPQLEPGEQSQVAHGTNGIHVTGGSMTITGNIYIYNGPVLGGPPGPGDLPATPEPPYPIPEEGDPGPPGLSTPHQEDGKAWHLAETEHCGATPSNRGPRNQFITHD

B1: FLAG-tagged soluble form of TNF-gamma-beta (aa 72-251) (ligand)
chain: LKGQEFAPSHQQVYAPLRADGDKPRAHLTVVRQTPTQHFKNQFPALHWEHELGLAFTKNRMNYTNKFLLIPESGDYFIYSQVTFRGMTSECSEIRQAGRPNKPDSITVVITKVTDSYPEPTQLLMGTKSVCEVGSNWFQPIYLGAMFSLQEGDKLMVNVSDISLVDYTKEDKTFFGAFLL
notes: also called FLAG-TL1β; FLAG-TNF-gamma-beta; not shown: FLAG tag of the pFLAG-CMV-1 vector at the amino terminus
no binding: [1] | [2] | [3] | [4] | [5] | [6]
